The values that follow come from patent US20210063414A1, “METHODS FOR PREVENTING AND/OR TREATING BONE LOSS CONDITIONS BY MODULATING IRISIN” (Dana-Farber Cancer Institute, Inc., priority 2018, published 2021).

Holding throughout (assay): Crosslinking/co-immunoprecipitation/mass spectrometry (TMT quantitative proteomics) to identify irisin receptors
What all share (type): binding

Experiment [1] has as its target T1, MLO-Y4 cell surface proteins (Mus musculus, UniProt P04117).
T1 construct: endogenous in cells; host or cells: MLO-Y4
T1 sequence (P04117 1-132): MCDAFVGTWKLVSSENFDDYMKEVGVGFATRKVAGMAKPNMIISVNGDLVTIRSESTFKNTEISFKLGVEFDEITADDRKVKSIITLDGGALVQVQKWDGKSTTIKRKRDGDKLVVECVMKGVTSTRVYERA
The conditions noted are these: co-precipitated protein Fabp4 (FABP4_MOUSE). The method in brief: (§1)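 Mouse MLO-Y4 cells were switched to serum-free FreeStyle medium for 4 h, chilled, then exposed to 10 nM His-tagged irisin (or adipsin as control) for 20 min. Cells were crosslinked with 1.5 mM DTSSP (30 min, ice), and bound proteins were pulled down on Ni-NTA and eluted with 250 mM imidazole. Eluates were separated by SDS-PAGE, trypsin-digested in gel, TMT 6-plex labelled and quantified by MS3-based LC-MS/MS on an Orbitrap Fusion Lumos.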

In experiment [2] the target is T2, MLO-Y4 cell surface proteins (Mus musculus, UniProt P62737).
T2 construct: endogenous in cells; host or cells: MLO-Y4
The conditions noted are these: co-precipitated protein Acta2 (ACTA_MOUSE). In short, it runs like this: as §1

Experiment [3] concerns the target T3, MLO-Y4 cell surface proteins (Mus musculus, UniProt Q3U1J4).
T3 construct: endogenous in cells; host or cells: MLO-Y4
The conditions noted are these: co-precipitated protein Ddb1 (DDB1_MOUSE). The method in brief: as §1

In experiment [4] the target is T4, MLO-Y4 cell surface proteins (Mus musculus, UniProt Q791V5).
T4 construct: endogenous in cells; host or cells: MLO-Y4
T4 sequence (Q791V5 1-303): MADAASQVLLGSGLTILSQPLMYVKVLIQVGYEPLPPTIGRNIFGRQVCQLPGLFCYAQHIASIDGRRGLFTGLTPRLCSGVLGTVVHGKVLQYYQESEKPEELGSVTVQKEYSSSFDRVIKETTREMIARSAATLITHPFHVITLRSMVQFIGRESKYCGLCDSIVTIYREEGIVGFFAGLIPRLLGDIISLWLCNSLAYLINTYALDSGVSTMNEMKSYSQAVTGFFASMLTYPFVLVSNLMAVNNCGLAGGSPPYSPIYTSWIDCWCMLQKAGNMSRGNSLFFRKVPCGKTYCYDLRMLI
The conditions noted are these: co-precipitated protein Mteh2 (MTCH2_MOUSE). The method in brief: as §1

The target of experiment [5] is T5, MLO-Y4 cell surface proteins (Mus musculus, UniProt Q8BFT2).
T5 construct: endogenous in cells; host or cells: MLO-Y4
T5 sequence (Q8BFT2 1-363): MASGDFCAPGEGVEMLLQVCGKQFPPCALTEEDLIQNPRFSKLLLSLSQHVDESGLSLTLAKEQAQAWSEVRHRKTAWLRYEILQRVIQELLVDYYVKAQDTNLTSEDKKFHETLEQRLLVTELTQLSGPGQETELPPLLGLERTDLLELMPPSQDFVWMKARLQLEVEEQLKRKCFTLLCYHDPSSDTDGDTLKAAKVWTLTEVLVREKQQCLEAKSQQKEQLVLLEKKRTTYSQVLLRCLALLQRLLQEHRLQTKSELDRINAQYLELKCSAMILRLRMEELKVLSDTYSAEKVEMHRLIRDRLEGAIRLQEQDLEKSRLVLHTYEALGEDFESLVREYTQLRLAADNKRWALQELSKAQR
The conditions noted are these: co-precipitated protein Haus4 (HAUS4_MOUSE). In short, it runs like this: as §1

Experiment [6] has as its target T6, MLO-Y4 cell surface proteins (Mus musculus, UniProt Q99KR7).
T6 construct: endogenous in cells; host or cells: MLO-Y4
The conditions noted are these: co-precipitated protein Ppif (PPIF_MOUSE). The method in brief:
as §1

T3 sequence (Q3U1J4 whole entry): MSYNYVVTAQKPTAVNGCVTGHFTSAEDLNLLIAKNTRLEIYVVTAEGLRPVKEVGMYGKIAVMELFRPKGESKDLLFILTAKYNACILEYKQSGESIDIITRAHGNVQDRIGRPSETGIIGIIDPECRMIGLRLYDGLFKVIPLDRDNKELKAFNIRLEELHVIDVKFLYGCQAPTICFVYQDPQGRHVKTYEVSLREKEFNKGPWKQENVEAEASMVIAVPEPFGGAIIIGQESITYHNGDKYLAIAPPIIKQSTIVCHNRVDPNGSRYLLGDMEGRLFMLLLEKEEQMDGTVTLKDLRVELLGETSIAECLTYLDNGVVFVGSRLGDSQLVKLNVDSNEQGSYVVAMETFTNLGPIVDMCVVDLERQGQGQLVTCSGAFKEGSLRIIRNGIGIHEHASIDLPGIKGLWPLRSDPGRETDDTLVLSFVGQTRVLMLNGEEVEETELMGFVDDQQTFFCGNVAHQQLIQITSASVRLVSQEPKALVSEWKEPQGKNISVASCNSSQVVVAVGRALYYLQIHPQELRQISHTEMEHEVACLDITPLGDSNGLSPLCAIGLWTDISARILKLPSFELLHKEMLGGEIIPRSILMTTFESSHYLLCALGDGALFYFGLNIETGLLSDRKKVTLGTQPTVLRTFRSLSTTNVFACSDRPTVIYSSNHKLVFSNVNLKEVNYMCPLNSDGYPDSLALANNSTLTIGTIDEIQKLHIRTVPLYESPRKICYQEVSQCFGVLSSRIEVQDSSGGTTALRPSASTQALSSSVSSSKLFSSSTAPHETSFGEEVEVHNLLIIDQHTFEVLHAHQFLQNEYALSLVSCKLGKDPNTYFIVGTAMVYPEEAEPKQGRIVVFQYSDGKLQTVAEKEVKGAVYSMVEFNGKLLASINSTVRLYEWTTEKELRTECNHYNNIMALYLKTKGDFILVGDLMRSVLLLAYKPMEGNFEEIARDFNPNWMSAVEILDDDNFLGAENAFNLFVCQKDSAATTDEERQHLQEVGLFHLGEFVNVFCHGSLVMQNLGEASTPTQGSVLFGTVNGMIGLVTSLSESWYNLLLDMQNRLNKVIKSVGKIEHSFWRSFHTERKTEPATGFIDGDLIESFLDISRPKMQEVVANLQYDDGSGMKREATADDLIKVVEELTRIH
T6 sequence (Q99KR7 30-206): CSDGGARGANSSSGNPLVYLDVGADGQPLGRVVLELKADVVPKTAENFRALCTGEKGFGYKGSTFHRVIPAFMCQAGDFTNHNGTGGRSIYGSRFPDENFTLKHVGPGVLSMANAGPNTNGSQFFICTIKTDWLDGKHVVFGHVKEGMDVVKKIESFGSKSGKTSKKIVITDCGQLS

In the case of adipsin, the TMT signal-to-noise ratio in experiment [1] is given as 746.54; in experiment [2] it was 361.157; in experiment [3] it was 426.44; in experiment [4], 101.527; in experiment [5], 518.102; in experiment [6] it was 249.839.
